Where two headings read alike, the source gives them in different places.
Experiments:
PEDF = PEDF secretion in HMC under high glucose (ELISA); format: cell-based, human; details: 30 mM glucose, 3 days
Method: FIG. 13 illustrates prevention of the high glucose-induced decrease of PEDF in HMC by kallistatin. HMC were treated with high glucose (30 mM) in the presence of different concentrations of kallistatin for 3 days. Control cells were treated with 5 mM glucose and 5 mM glucose+25 mM mannitol as an osmolarity control. PEDF secretion into the medium was measured by ELISA (mean±SD, n=3).
Kallistatin up-regulates endogenous anti-inflammatory factors in the kidney. Pigment epithelium-derived factor (PEDF) is an anti-angiogenic factor. Recently, the inventor has shown that PEDF also has anti-inflammatory activities and has a protective effect against DN (see U.S. Ser. No. 10/963,115, filed Oct. 12, 2004, the contents of which are hereby expressly incorporated herein by reference). Decreased PEDF levels in diabetic kidney may contribute to the development of DN. The effect of kallistatin on PEDF expression has been determined in kidney cells. HMC were treated with high glucose (30 mM glucose) with different concentrations of kallistatin for 3 days. The PEDF levels in the cultured medium were measured by ELISA specific for PEDF.

[1] = system: vascular permeability in the retina, iris and choroid; test: Vascular permeability by Evans blue leakage in OIR rats; format: in vivo, Brown Norway rats
Method: Next, the effect of kallistatin on vascular permeability was determined. At P14, two days after the rats were returned to normoxia, the OIR rats received an intravitreal injection of 3 μl of kallistatin of concentrations of 2.4, 4.8 and 9.6 mg/ml in the right eye (4 animals per dose group), and the same volume of PBS in the left. Two days after the kallistatin injection (P16), vascular permeability was measured by the Evans blue leakage method. […] Kallistatin injection decreased vascular permeability in a dose-dependent manner in the retina, iris and choroid of the hyperoxia-treated rats (FIG. 6).
Measurement of vascular permeability: Vascular permeability was quantified by measuring albumin leakage from blood vessels into the retina, iris and choroid using Evans blue following a documented protocol (Xu et al., 2001) with minor modifications. Evans blue dye (Sigma, St. Louis, Mo.) was dissolved in normal saline (30 mg/ml), sonicated for 5 min and filtered through a 0.45-μm filter (Millipore, Bedford, Mass.). The rats were anesthetized, and Evans blue (30 mg/kg) was injected over 10 seconds through the femoral vein using a glass capillary under microscopic inspection. Evans blue non-covalently binds to plasma albumin in the blood stream (Radius et al., 1980). Immediately after Evans blue infusion, the rats turned visibly blue, confirming their uptake and distribution of the dye. The rats were kept on a warm pad for 2 h to ensure the complete circulation of the dye. Then the chest cavity was opened, and the rats were perfused via the left ventricle with 1% paraformaldehyde in citrate buffer (pH=4.2) which was pre-warmed to 37° C. to prevent vasoconstriction. The perfusion lasted 2 min under the physiological pressure of 120 mmHg to clear the dye from the vessel. Immediately after perfusion, the eyes were enucleated and the retina, iris and choroid were carefully dissected under an operating microscope. Evans blue dye was extracted by incubating each sample in 150 μl formamide for 18 h at 70° C. The extract was centrifuged (TL; Beckman) at 70,000 rpm (Rotor type: TLA 100.3) for 20 min at 4° C. Absorbance was measured using 100 μl of the supernatant at 620 nm. The concentration of Evans blue in the extracts was calculated from a standard curve of Evans blue in formamide and normalized by the total protein concentration in each sample. Results were expressed in micrograms of Evans blue per milligrams of total protein content.

[2] = system: retinal neovascularization; format: in vivo, Brown Norway rats; details: for pre-retinal vascular cells: P<0.01
Method: Retinal neovascularization was induced in Brown Norway rats by exposure of newborn rats to hyperoxia as described previously (Gao et al., 2001). Kallistatin was injected intravitreally at P12, and the control eyes received the same volume of PBS. Rats were kept under normoxia for another 5 days, and retinal neovascularization was examined by fluorescein angiography (P17). The control eyes (PBS-injected) developed typical retinal neo-vascularization, including neovascular tufts, microaneurysms, enlarged non-perfusion regions and vascular leakage (FIG. 5a).
Induction of retinal neovascularization and intravitreal injection of kallistatin: Retinal neovascularization was induced as described by Smith et al. (Smith et al., 1994) with some modifications. Briefly, newborn pigmented Brown Norway rats at postnatal day 7 (P7) were exposed to hyperoxia (75% O2) for 5 days and then normoxia. Animals were anesthetized, and kallistatin was injected into the vitreous of the right eye through the pars plana using a glass capillary. The left eye received the same volume of PBS as the control. After injection, the animals were kept in normoxia for another 5 days for further analyses.
Retinal angiography with high molecular weight fluorescein and quantification of neovascularization: Retinal angiography was as described by Smith et al. (Smith et al., 1994). Briefly, rats were anesthetized and perfused with fluorescein via intra-ventricle injection of 50 mg/ml of high molecular weight (2×10^6) fluorescein isothiocyanate-dextran (Sigma, St. Louis, Mo.). The animals were immediately sacrificed, and the eyes were enucleated and fixed in 4% paraformaldehyde for 10 min. The retina was dissected free of the lens and vitreous and incubated in 4% paraformaldehyde for 3 h. The retina was cut and flat-mounted on a gelatin-coated slide. The vasculature was then examined under a fluorescent microscope (Axioplan2 Imaging, Zeiss).
Retinal neovascularization was quantified by counting pre-retinal vascular cells as previously described (Zhang et al., 2001). The average number of pre-retinal vascular nuclei was compared to the PBS control group by Student's t test.

[3] = system: rat Müller cell line, rMC-1; test: Quantification of viable cells by MTT assay, Müller cell line; format: cell-based; details: 5-160 nM, 72 h, P>0.05
Method: FIG. 2 illustrates the specific inhibition of endothelial cell proliferation by recombinant kallistatin. RCEC were treated with recombinant kallistatin at concentrations of 5,10, 20, 40, 80 and 160 nM for 72 h. Viable cells were quantified by MTT assay. […] This effect appeared to be kallistatin concentration-dependent, with an apparent IC50 of 50 nM (FIG. 2) which is similar to that of K5, a known angiogenic inhibitor (Zhang et al., 2001).
Quantification of viable cells: Cells were plated in 12-well plates in triplicate and cultured in the growth medium until they reached 60-70% of confluency. The culture medium was replaced with a medium containing 1% fetal bovine serum (FBS). Recombinant kallistatin was added to the cover medium to various concentrations and incubated with the cells for 72 h. The viable cells were quantified by the MTT (3-[4,5-dimethylthiazol-2-yl]-2,5-dephenyl tetrazolium bromid, Roche, Mannheim, Germany) assay following a protocol recommended by the manufacturer. The effect of kallistatin on viable cell number was analyzed using Student's t test.

[4] = 3 μl of 4.8 mg/ml intravitreal, P<0.05
[5] = 3 μl of 9.6 mg/ml intravitreal at P14, measured P16, P<0.01

B1: kallistatin: Recombinant His-tagged rat kallistatin (serpin, SEQ ID NO:1) expressed in E. coli and affinity-purified (protein, listed as Homo sapiens)
chain: DGILGRDTLPHEDQGKGRQLHSLTLASINTDFTLSLYKKLALRNPDKNVVFSPLSISAALAILSLGAKDSTMEEILEVLKFNLTEITEEEIHHQGFGHLLQRLSQPEDQAEINTGSALFIDKEQPILSEFQEKTRALYQAEAFVADFKQCNEAKKFINDYVSNQTQGKIAELFSELDERTSMVLVNYLLFKGKWKVPFNPNDTFESEFYLDEKRSVKVPMMKIKDLTTPYIRDEELSCSVLELKYTGNASALFILPDQGKMQQVESSLQPETLKKWKDSLRPRIISELRMPKFSISTDYNLEEVLPELGIRKIFSQQADLSRITGTKNLHVSQVVHKAVLDVDETGTEGAAATAVTAALKSLPQTIPPLNFNRPFMLVITDNNGQSVFFMGKVTNPM
modifications: His tag
- PEDF levels in the cultured medium (PEDF): prevents the decrease of PEDF under the high glucose insult
- PEDF levels in the cultured medium (PEDF; listed as Kallistatin): reversed the changes of PEDF under high glucose conditions
- vascular permeability, choroid ([1]; 3 μl of 2.4 mg/ml intravitreal): did not show any significant effect
- vascular permeability, iris ([1]; 3 μl of 2.4 mg/ml intravitreal): did not show any significant effect
- vascular permeability, retina ([1]; 3 μl of 2.4 mg/ml intravitreal): did not show any significant effect
- vascular leakage, choroid ([1]; 3 μl of 4.8 mg/ml intravitreal): not in the choroid
- vascular leakage, iris [1, 4]: significantly decreased vascular leakage
- vascular leakage, retina [1, 4]: significantly decreased vascular leakage
- vascular permeability, iris [1, 5]: significant decrease in permeability
- vascular permeability, retina [1, 5]: significant decrease in permeability
- vascular permeability, choroid ([1]; 3 μl of 9.6 mg/ml intravitreal at P14, measured P16, P<0.05): significant decrease in permeability
- pre-retinal vascular cells ([2]; OIR rats, 12.5 μg per eye intravitreal): significantly decreased pre-retinal vascular cells
- pre-retinal vascular cells ([2]; OIR rats, 25 μg per eye intravitreal): significantly decreased pre-retinal vascular cells
- retinal vasculature by fluorescein angiography ([2]; OIR rats, intravitreal injection at P12, examined P17): apparent improvement in retinal vasculature
- retinal vasculature by fluorescein angiography, normal rats ([2]; rat, in vivo): did not result in any apparent difference in retinal vasculature
- inhibition of the Müller cell line (viable cells) [3]: did not result in any significant inhibition
